Target: CXCL12α (Homo sapiens, UniProt P48061, CXCR4 fused to Kate2)
Assay: receptor internalization sensor

Kd: ~2 nM
B1: CXCR4 (protein)
chain: MEGISIYTSDNYTEEMGSGDYDSMKEPCFREENANFNKIFLPTIYSIIFLTGIVGNGLVILVMGYQKKLRSMTDKYRLHLSVADLLFVITLPFWAVDAVANWYFGNFLCKAVHVIYTVNLYSSVLILAFISLDRYLAIVHATNSQRPRKLLAEKVVYVGVWIPALLLTIPDFIFANVSEADDRYICDRFYPNDLWVVVFQFQHIMVGLILPGIVILSCYCIIISKLSHSKGHQKRKALKTTVILILAFFACWLPYYIGISIDSFILLEIIKQGCEFENTVHKWISITEALAFFHCCLNPILYAFLGAKFKTSAQHALTSVSRGSSLKILSKGKRGGHSSVSTESESSSFHSS
